Results on 3 molecules are retold here after article PMC9038204, “SNX27–Retromer directly binds ESCPE-1 to transfer cargo proteins during endosomal recycling” (PLoS Biology, 2022).

For orientation: Kd means the free concentration of one partner at which half of the binding sites on the other are occupied at equilibrium, for simple one-to-one binding. A high value points to weaker binding.

One assay concerns SNX27. The experiment in a line: GFP trap co-immunoprecipitation of GFP-SNX1/SNX2 constructs from HEK-293T, quantitative western blot: SNX27. The assay is classed as binding. Particulars: Fig 3F, S2B Fig; double aDLF mutants in HEK293T, GFP trap. Here is the method:
HeLa and HEK-293T cell lines were sourced from ATCC. Authentication was from the ATCC. Cells were grown in DMEM (Sigma-Aldrich) supplemented with 10% (v/v) FCS (Sigma-Aldrich) and penicillin/streptomycin (Gibco, USA) and grown under standard conditions. FuGENE HD (Promega, USA) was used for transient transfection of DNA according to the manufacturer’s instructions. Cycloheximide was used to prevent up-regulation of protein synthesis. In this case, cycloheximide (C7698; Sigma-Aldrich) at 10 μg/ml was added to the cells 48 hours after FuGENE transfection for the indicated time points. For the generation of CRISPR-Cas9 SNX27 knockout HeLa cells, HeLa cells were transfected with pX330 plasmid coding for the gRNA against the gene of interest together with a puromycin resistance–expressing plasmid. Cells were then subjected to puromycin selection for 24 hours. The pooled population of cells was subjected to lysis and western blotting to confirm the knockout. The VPS35 knockout clonal cell line used in this study was characterized previously. […]
For western blotting, cells were lysed in PBS with 1% (v/v) Triton X-100 and protease inhibitor cocktail. The protein concentration was determined with a BCA assay kit (Thermo Fisher Scientific, USA), and equal amounts were resolved on NuPAGE 4% to 12% precast gels (Invitrogen, USA). […]

Assay [1] concerns the target FERM domain of human SNX27 (hSNX27FERM). The experiment in a line: ITC, hSNX27FERM titrated into mSNX1 proteins. The class given is binding. Particulars: 25°C. On the procedure:
Human SNX1 and SNX2 peptide sequences were synthesized by Genscript (USA). To obtain the peptide stock solutions at neutral pH, 100 mM Tris-HCl, pH 10.6 was used to dissolve the peptide to a final concentration of 8 mM. The peptides were SNX1_35-51 […], SNX135-51(D45K) […], SNX1_75-92 […], SNX2_16-33 […], SNX2_16-33(DLF/SSS) […], and SNX2_62-82 […].
All microcalorimetry experiments were conducted at 25°C using a PEAQ ITC (Malvern, UK) in 50 mM HEPES (pH 7.5), 200 mM NaCl, 5% glycerol, and 1 mM β-ME (ITC buffer). All proteins were purified by SEC using the same buffer prior to ITC experiments to avoid buffer mismatches. To measure binding of SNX27 to SNX1 proteins, 800 μM of hSNX27FERM was titrated into 20 μM of GST-mSNX1_1-139 or His-SNX1FL. For the binding of SNX1 and SNX2 peptides to SNX27, peptides were diluted 10-fold to 800 μM in ITC buffer peptides and titrated into 20 μM SNX27FL proteins containing the same 1:10 ratio of peptide buffer (100 mM Tris-HCl, pH 10.6). The competitive ITC experiments were carried out by titrating 800 μM SNX1_75-92 peptides into 20 μM proteins with 2-fold molar excess SNX2_16-33 peptide preincubated with SNX27 on ice for an hour. For ITC experiment using SNX1_75-92 against hSNX27 wild-type and single-site mutants, 600 μM SNX1_75-92 peptide was titrated into 20 μM hSNX27 proteins.
The ITC experiments were conducted with 1 injection of 0.4 μL followed by a series of 12 injections of 3.2 μL each with 180-second intervals and a stirring speed of 850 rpm. The heat exchange of interactions was obtained through integrating the observed peaks and background correction by subtracting the heats of dilution. Data were analyzed with Malvern software package by fitting and normalized data to a single-site binding model, yielding the thermodynamic parameters Kd, ΔH, ΔG, and −TΔS for all binding experiments. The stoichiometry was refined initially, and if the value was close to 1, then N was set to exactly 1.0 for calculation. All experiments were performed at least twice to guarantee reproducibility of the data.
(In ITC the heat of successive injections is recorded.)

Setting [2] is: pH 7.5, 800 μM hSNX27FERM into 20 μM mSNX1 protein.

B1: GFP-SNX2(D26K,D72K): mutant targeting both aDLF motifs in SNX2 (protein, UniProt O60749 1-519, looked up, variant D26K D72K)
Sorting nexin-2: MAAEREPPPLGDGKPTDFEDLEDGEKLFTSTVSTLESSPSSPEPASLPAEDISANSNGPKPTEVVLDDDREKLFAEATEEVSLDSPEREPILSSEPSPAVTPVTPTTLIAPRIESKSMSAPVIFDRSREEIEEEANGDIFDIEIGVSDPEKVGDGMNAYMAYRVTTKTSLSMFSKSEFSVKRRFSDFLGLHSKLASKYLHVGYIVPPAPEKSIVGMTKVKVGKEDSSSTEFVEKRRAALERYLQRTVKHPTLLQDPDLRQFLESSELPRAVNTQALSGAGILRMVNKAADAVNKMTIKMNESDAWFEEKQQQFENLDQQLRKLHVSVEALVCHRKELSANTAAFAKSAAMLGNSEDHTALSRALSQLAEVEEKIDQLHQEQAFADFYMFSELLSDYIRLIAAVKGVFDHRMKCWQKWEDAQITLLKKREAEAKMMVANKPDKIQQAKNEIREWEAKVQQGERDFEQISKTIRKEVGRFEKERVKDFKTVIIKYLESLVQTQQQLIKYWEAFLPEAKAIA
modifications: GFP tag
Consider B1, for which the “SNX27 binding, in words” value with SNX27 was “near undetectable levels”.

B2: mSNX1FL: recombinant full-length mouse SNX1 with an amino-terminal His-tag (protein)
chain: MASGGGGCSASERLPPPFPGMDPESEGAAGASEPEAGDSDTEGEDIFTGAAAATKPQSPKKTTSLFPIKNGSKENGIHEDQDQEPQDLFADATVELSLDSTQNNQKTMPGKTLTSHSPQEATNSPKPQPSYEELEEEEQEDQFDLTVGITDPEKIGDGMNAYVAYKVTTQTSLPMFRSRQFAVKRRFSDFLGLYEKLSEKHSQNGFIVPPPPEKSLIGMTKVKVGKEDSSSAEFLEKRRAALERYLQRIVNHPTMLQDPDVREFLEKEELPRAVGTQALSGAGLLKMFNKATDAVSKMTIKMNESDIWFEEKLQEVECEEQRLRKLHAVVETLVNHRKELALNTALFAKSLAMLGSSEDNTALSRALSQLAEVEEKIEQLHQEQANNDSFLLAELLSDYIRLLAIVRAAFDQRMKTWQRWQDAQATLQKKRESEARLLWANKPDKLQQAKDEITEWESRVTQYERDFERISTVVRKEVTRFEKEKSKDFKNHVMKYLETLLHSQQQLAKYWEAFLPEAKAIS
modifications: left off: His-tag, N-terminal, kept
In turn, B2 registered a Kd in assay [1] (50 mM HEPES pH 7.5, 200 mM NaCl, 5% glycerol, 1 mM β-ME, 800 μM hSNX27FERM titrated into 20 μM mSNX1 protein, single-site fit, mean of at least 2 experiments) of 41 µM. For the same molecule, in assay [1] (setting [2]), the “-TΔS” value came out at 0.24 ± 3.10 kcal/mol, the ΔG is on record as -5.99 ± 0.02 kcal/mol and the ΔH was -6.23 ± 3.11 kcal/mol.

B3: mSNX1_1-139: recombinant truncated mSNX1 containing residues 1 to 139, GST fusion protein (protein)
chain: MASGGGGCSASERLPPPFPGMDPESEGAAGASEPEAGDSDTEGEDIFTGAAAATKPQSPKKTTSLFPIKNGSKENGIHEDQDQEPQDLFADATVELSLDSTQNNQKTMPGKTLTSHSPQEATNSPKPQPSYEELEEEEQ
modifications: left off: GST, N-terminal, kept
notes: recombinant truncated mSNX1 containing residues 1 to 139, GST fusion protein
In assay [1] (setting [2]), B3 had a ΔG of -6.02 ± 0.01 kcal/mol and a ΔH of -6.93 ± 0.01 kcal/mol.
